# Reference: patent publication US20060281899A1, “Mutants of biotin binding protein” (priority 2002, published 2006)
# Like-named read-outs stand apart in the source and are kept apart here.
# B1: AVR4/5: Recombinant chicken avidin-related protein 4/5 (AVR4 and AVR5 identical in coding sequence) (protein, UniProt P56734 25-150, looked up)
# Avidin-related protein 4/5: ARKCSLTGKWTNNLGSIMTIRAVNSRGEFTGTYLTAVADNPGNITLSPLLGIQHKRASQPTFGFTVHWNFSESTTVFTGQCFIDRNGKEVLKTMWLLRSSVNDISYDWKATRVGYNNFTRLCTVEE
# Assays:
# [1] = IASyS optical biosensor, binding in a 2-iminobiotin cuvette; details: for Kd: 2-iminobiotin cuvette, 20.0° C.
# Procedure: The biotin-binding characteristics of the AVR proteins were studied as previously described using the IASyS optical biosensor (Marttila, A. T., Airenne, K. J., Laitinen, O. H., Kulik, T., Bayer, E. A ., Wilchek, M. and Kulomaa, M. S. (1998) FEBS Lett. 441, 313-317; Laitinen, O. H., Airenne, K. J., Marttila, A. T., Kulik, T., Porkka, E., Bayer, E. A., Wilchek, M. and Kulomaa, M. S. (1999) FEBS Lett. 461, 52-8). Affinities were measured for 2-iminobiotin or biotin at 20.0° C. using a stirring power of 100%. Briefly, the protein under study in biotin-free buffer was allowed to bind to the biotin-coated surface of the IASyS cuvette. As a negative control, the protein under study was saturated with excess biotin prior to (and was also maintained under biotin excess upon) addition to the cuvette. Under these conditions, residual binding to the biotin surface of the cuvette could be regarded as unspecific, and was used as a measure of baseline variation. Binding equilibrium in the experimental cuvette was considered to be attained after no binding was detected as compared to negative control.
# The actual dissociation constants (Kd) were calculated for the AVRs according to the kass and kdiss rates measured in a separate assay in different protein concentrations (varying between 10 μM and 100 pM) (Table 4 and FIG. 6). The binding seemed to follow two-order or even more complex kinetics. However, the first 1000 seconds of the binding fitted considerably well to the bi-phasic curve. All measured dissociation rate constants (kdiss) followed the first-order kinetics. Because of the extremely high binding, affinities of the AVRs for biotin could not be determined except for AVR1, AVR2 and AVR7. Binding to 2-iminobiotin was determined only for AVR4/5, and it was similar to that of avidin. The lack of binding for the other AVRs was surprising, since most of them were purified using 2-iminobiotin agarose.
# [2] = IASyS reversibility of biotin binding of avidin and AVRs; details: biotin cuvette, after addition of free biotin (0.17 mg/ml)
# Procedure: The reversibility of biotin binding was studied as follows: Avidin and the AVRs were allowed to bind to a biotin-coated cuvette. After measuring the initial binding (A) as described above, biotin-saturated (0.17 mg/ml) buffer was injected into the cuvette and the amount of proteins remaining bound was measured until no dissociation was seen, again as compared to the negative control cuvette (B). The measurement time was at least 20 minutes. The percent reversibility was calculated as follows: reversibility (%)=100*(A−B)/A. A−B is the amount of liberated proteins after biotin adding.
# Isoelectric focusing = assay type: physicochemical
# Procedure: The heat stability of the AVRs was studied by using an SDS-PAGE-based method (Bayer, E. A., Ehrlich-Rogozinski, S. and Wilchek, M. (1996) Electrophoresis 17, 1319-1324). In this method, each protein sample was divided into two fractions one of which was kept biotin-free and the other was supplemented with an excess of biotin. The samples were then mixed with denaturing SDS-PAGE sample buffer (containing β-mercaptoethanol) and incubated at a given temperature for 20 minutes. After heat treatment, the samples were subjected to SDS-PAGE and visualised by staining with Coomassie brilliant blue. The relative proportions of tetrameric and monomeric forms of the AVR proteins (with avidin as the control) were detected. A similar assay, with β-mercaptoethanol omitted from the sample buffer, was performed to examine the presence of intersubunit disulfide-bridges. Sensitivity to proteinase K was studied both in the absence and in the presence of biotin as described (Laitinen, O. H., Airenne, K. J., Marttila, A. T., Kulik, T., Porkka, E., Bayer, E. A., Wilchek, M. and Kulomaa, M. S. (1999) FEBS Lett. 461, 52-8). The isoelectric point of each AVR was determined by isoelectric focusing as previously reported (Marttila, A. T., Airenne, K. J., Laitinen, O. H., Kulik, T., Bayer, E. A., Wilchek, M. and Kulomaa, M. S. (1998) FEBS Lett. 441, 313-317). The glycosylation patterns of the AVR proteins were studied by treating the proteins with Endo Hf and PNGase F glycosidase according to the manufacturer's instructions (New England Biolabs, Mass., USA).
# [3] = 2-iminobiotin cuvette (as for Kd of this protein)
molecule,measurement,setting,value
B1,kass,[1]; [3],(1.8 ± 0.2) × 10^5 M^−1 s^−1
same,kdiss,[1]; [3],(1.7 ± 0.7) × 10^−3 s^−1
same,Kd,[1]; read-out: Kd calculated directly from the binding curves,91 nM
same,Kd,[1]; read-out: Kd calculated from the equilibrium response data,570 nM
same,maximal binding (Rmax),"[1]; iminobiotin binding, highest concentration (2.2×10−6 M)",ca. 1000 arc seconds
same,Reversibility of biotin binding,[2],2 ± 2%
same,pI by isoelectric focusing,Isoelectric focusing,≈ 10
